One series deals with T1, NoIPT1 (Nostoc sp. PCC 7120 = FACHB-418, UniProt A0ACD7S271).
T1 construct: gene all0220; full gene in pET-28b(+) (NdeI/SalI), N-terminal polyhistidine tag kept; E. coli BL21(DE3) STAR
T1 sequence (A0ACD7S271 1-244): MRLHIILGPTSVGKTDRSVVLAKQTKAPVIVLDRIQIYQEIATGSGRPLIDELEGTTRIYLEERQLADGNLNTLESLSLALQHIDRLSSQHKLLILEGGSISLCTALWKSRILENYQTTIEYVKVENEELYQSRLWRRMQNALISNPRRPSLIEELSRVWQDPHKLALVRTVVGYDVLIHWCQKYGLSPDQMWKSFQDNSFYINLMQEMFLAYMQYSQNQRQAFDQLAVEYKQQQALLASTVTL
The experiment in a line: HPLC-UV product determination; trans-zeatin-5'-monophosphate formed. The series is classed as biochemical. To be noted: with AMP, 10 mM MgCl2, pH 7.5, 25°C.

Substrate in series [1]: CC(C)=CCOP(=O)(O)OP(=O)(O)O
The experiment in a line: purified protein. The note with it: 20 μM AMP, 10 mM MgCl2, 100 mM Tris/HCl pH 7.5, 25°C. The series is classed as biochemical, Nostoc sp. PCC 7120 = FACHB-418.

Substrate in series [2]: Nc1ncnc2c1ncn2[C@@H]1O[C@H](COP(=O)(O)O)[C@@H](O)[C@H]1O
The experiment in a line: purified protein. The series is classed as biochemical, Nostoc sp. PCC 7120 = FACHB-418. The note with it: 150 μM DMAPP, 10 mM MgCl2, 100 mM Tris/HCl pH 7.5, 25°C.

For `C/C(=C\COP(=O)(O)OP(=O)(O)O)CO` [HMBPP, (E)-4-hydroxy-3-methyl-but-2-enyl diphosphate], the “HPLC-UV product determination; trans-zeatin-5'-monophosphate formed” value at NoIPT1 is recorded as “NoIPT1 used a hydroxylated side chain precursor, HMBPP, to form trans-zeatin-5´-monophosphate in the reaction with AMP”.

B1: NoIPT1 (Nostoc sp. PCC 7120 = FACHB-418) (protein)
chain: T1 sequence (A0ACD7S271 1-244)
notes: full gene in pET-28b(+) (NdeI/SalI), N-terminal polyhistidine tag kept; E. coli BL21(DE3) STAR
In the case of B1, the Km was found to be 27.05 ± 2.47 µM in the series “purified protein [1]” and 0.63 ± 0.18 µM in the series “purified protein [2]”.

The values above are taken from publication PMC4574047, “Biochemical Characterization of Putative Adenylate Dimethylallyltransferase and Cytokinin Dehydrogenase from Nostoc sp. PCC 7120” (PLoS ONE, 2015).
